Measurements published in publication PMC10786891, “Massively parallel profiling of RNA-targeting CRISPR-Cas13d”.

T1: EsCas13d, nuclease-dead (Eubacterium siraeum, UniProt B0MS50, R295A;H300A;R849A;H854A)
T1 sequence: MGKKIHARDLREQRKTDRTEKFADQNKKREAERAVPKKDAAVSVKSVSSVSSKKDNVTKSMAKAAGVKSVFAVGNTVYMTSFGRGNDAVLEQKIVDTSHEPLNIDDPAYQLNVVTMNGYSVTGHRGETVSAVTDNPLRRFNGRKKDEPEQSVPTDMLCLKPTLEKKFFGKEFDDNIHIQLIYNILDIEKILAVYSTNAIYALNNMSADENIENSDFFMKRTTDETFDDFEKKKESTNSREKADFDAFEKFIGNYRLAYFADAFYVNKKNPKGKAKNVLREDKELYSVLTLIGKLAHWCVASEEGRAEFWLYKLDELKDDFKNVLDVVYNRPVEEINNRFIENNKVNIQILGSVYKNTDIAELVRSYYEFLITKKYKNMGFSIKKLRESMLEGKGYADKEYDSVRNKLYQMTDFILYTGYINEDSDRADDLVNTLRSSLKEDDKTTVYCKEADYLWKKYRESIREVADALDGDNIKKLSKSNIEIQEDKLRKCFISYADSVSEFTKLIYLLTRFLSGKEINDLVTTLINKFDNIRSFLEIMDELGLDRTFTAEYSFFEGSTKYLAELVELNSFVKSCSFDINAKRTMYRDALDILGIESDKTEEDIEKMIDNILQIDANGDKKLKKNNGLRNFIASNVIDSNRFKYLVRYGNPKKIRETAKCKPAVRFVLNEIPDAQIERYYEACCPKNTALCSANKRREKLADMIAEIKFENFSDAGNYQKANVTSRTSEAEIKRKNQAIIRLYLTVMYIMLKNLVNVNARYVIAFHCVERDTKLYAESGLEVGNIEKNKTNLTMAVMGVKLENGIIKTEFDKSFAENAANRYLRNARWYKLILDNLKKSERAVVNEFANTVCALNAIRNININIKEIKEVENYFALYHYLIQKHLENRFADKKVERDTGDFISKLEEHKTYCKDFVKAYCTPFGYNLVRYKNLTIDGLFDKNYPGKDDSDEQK


Biological target: T1, EsCas13d, nuclease-dead
Assay: crRNA (strand 1, pre-loaded); Mg2+; 40 mM Tris-HCl pH 7.5, 150 mM NaCl, 6 mM MgCl2, 1 mM DTT, 0.1% Tween-20, 0.2 mg/ml BSA; 25 C; 10 min per concentration, then washed
Conditions: tags: His6-TwinStrep-SUMO cleaved; N-terminal SNAP kept (SNAP-Surface 488); label: 3' end held by stalled T7 RNA polymerase

| Binder | Kd [nM] |
| --- | --- |
| target 1 MT 5'PFS UGC 3'PFS CCG (mixed) RNA 1: CACCCGUGCAAAAAUGCAGGGGUCUAAAACUGAGCGGAUAACCUCUCUAUGG RNA 2: GGGAAUGGAUCCACAUCUACGAAUUCUGCCCAUAGAGAGGUUAUCCGCUCACCGAGAUCGGAAGAGCACACGU | 11.8 ± 3.85 |
| target 1 MT 5'PFS GAA 3'PFS AUU (mixed) RNA 1: CACCCGUGCAAAAAUGCAGGGGUCUAAAACUGAGCGGAUAACCUCUCUAUGG RNA 2: GGGAAUGGAUCCACAUCUACGAAUUCGAACCAUAGAGAGGUUAUCCGCUCAAUUAGAUCGGAAGAGCACACGU | 24.5 ± 8.5 |
| target 1 MT 5'PFS GGG 3'PFS AAG (mixed) RNA 1: CACCCGUGCAAAAAUGCAGGGGUCUAAAACUGAGCGGAUAACCUCUCUAUGG RNA 2: GGGAAUGGAUCCACAUCUACGAAUUCGGGCCAUAGAGAGGUUAUCCGCUCAAAGAGAUCGGAAGAGCACACGU | 23.9 ± 3.25 |
| target 1 MT 5'PFS GAC 3'PFS AGU (mixed) RNA 1: CACCCGUGCAAAAAUGCAGGGGUCUAAAACUGAGCGGAUAACCUCUCUAUGG RNA 2: GGGAAUGGAUCCACAUCUACGAAUUCGACCCAUAGAGAGGUUAUCCGCUCAAGUAGAUCGGAAGAGCACACGU | 35.5 ± 10.5 |
| target 1 MT 5'PFS GUA 3'PFS CGU (mixed) RNA 1: CACCCGUGCAAAAAUGCAGGGGUCUAAAACUGAGCGGAUAACCUCUCUAUGG RNA 2: GGGAAUGGAUCCACAUCUACGAAUUCGUACCAUAGAGAGGUUAUCCGCUCACGUAGAUCGGAAGAGCACACGU | 5.66 ± 0.48 |
| target 1 MT 5'PFS GUA 3'PFS CGA (mixed) RNA 1: CACCCGUGCAAAAAUGCAGGGGUCUAAAACUGAGCGGAUAACCUCUCUAUGG RNA 2: GGGAAUGGAUCCACAUCUACGAAUUCGUACCAUAGAGAGGUUAUCCGCUCACGAAGAUCGGAAGAGCACACGU | 17.8 ± 2.55 |
| target 1 MT 5'PFS UUG 3'PFS ACU (mixed) RNA 1: CACCCGUGCAAAAAUGCAGGGGUCUAAAACUGAGCGGAUAACCUCUCUAUGG RNA 2: GGGAAUGGAUCCACAUCUACGAAUUCUUGCCAUAGAGAGGUUAUCCGCUCAACUAGAUCGGAAGAGCACACGU | 21 ± 5 |
| target 1 MT 5'PFS CUC 3'PFS UCA (mixed) RNA 1: CACCCGUGCAAAAAUGCAGGGGUCUAAAACUGAGCGGAUAACCUCUCUAUGG RNA 2: GGGAAUGGAUCCACAUCUACGAAUUCCUCCCAUAGAGAGGUUAUCCGCUCAUCAAGAUCGGAAGAGCACACGU | ~26 |
| target 1 MT 5'PFS GCU 3'PFS GCU (mixed) RNA 1: CACCCGUGCAAAAAUGCAGGGGUCUAAAACUGAGCGGAUAACCUCUCUAUGG RNA 2: GGGAAUGGAUCCACAUCUACGAAUUCGCUCCAUAGAGAGGUUAUCCGCUCAGCUAGAUCGGAAGAGCACACGU | 17 ± 5 |
| target 1 complement block 6-12 (mixed) RNA 1: CACCCGUGCAAAAAUGCAGGGGUCUAAAACUGAGCGGAUAACCUCUCUAUGG RNA 2: GGGAAUGGAUCCACAUCUACGAAUUCGUACCAUAGAGAGCAAUAGGGCUCACCGAGAUCGGAAGAGCACACGU | 16.7 ± 1 |
| target 1 MT 5'PFS GUA 3'PFS CGG (mixed) RNA 1: CACCCGUGCAAAAAUGCAGGGGUCUAAAACUGAGCGGAUAACCUCUCUAUGG RNA 2: GGGAAUGGAUCCACAUCUACGAAUUCGUACCAUAGAGAGGUUAUCCGCUCACGGAGAUCGGAAGAGCACACGU | 15.2 ± 1.15 |
| target 1 MT 5'PFS CUU 3'PFS ACU (mixed) RNA 1: CACCCGUGCAAAAAUGCAGGGGUCUAAAACUGAGCGGAUAACCUCUCUAUGG RNA 2: GGGAAUGGAUCCACAUCUACGAAUUCCUUCCAUAGAGAGGUUAUCCGCUCAACUAGAUCGGAAGAGCACACGU | 29.5 ± 10.5 |
| target 1 MT 5'PFS ACA 3'PFS UGU (mixed) RNA 1: CACCCGUGCAAAAAUGCAGGGGUCUAAAACUGAGCGGAUAACCUCUCUAUGG RNA 2: GGGAAUGGAUCCACAUCUACGAAUUCACACCAUAGAGAGGUUAUCCGCUCAUGUAGAUCGGAAGAGCACACGU | 45 ± 12 |
| target 1 MT 5'PFS GUA 3'PFS CGC (mixed) RNA 1: CACCCGUGCAAAAAUGCAGGGGUCUAAAACUGAGCGGAUAACCUCUCUAUGG RNA 2: GGGAAUGGAUCCACAUCUACGAAUUCGUACCAUAGAGAGGUUAUCCGCUCACGCAGAUCGGAAGAGCACACGU | 11.2 ± 1.15 |
| target 1 MT 5'PFS UGU 3'PFS CGA (mixed) RNA 1: CACCCGUGCAAAAAUGCAGGGGUCUAAAACUGAGCGGAUAACCUCUCUAUGG RNA 2: GGGAAUGGAUCCACAUCUACGAAUUCUGUCCAUAGAGAGGUUAUCCGCUCACGAAGAUCGGAAGAGCACACGU | 60 ± 28.5 |
| target 1 MT 5'PFS GAC 3'PFS AGA (mixed) RNA 1: CACCCGUGCAAAAAUGCAGGGGUCUAAAACUGAGCGGAUAACCUCUCUAUGG RNA 2: GGGAAUGGAUCCACAUCUACGAAUUCGACCCAUAGAGAGGUUAUCCGCUCAAGAAGAUCGGAAGAGCACACGU | 28 ± 14 |
| target 1 MT 5'PFS CUC 3'PFS UCG (mixed) RNA 1: CACCCGUGCAAAAAUGCAGGGGUCUAAAACUGAGCGGAUAACCUCUCUAUGG RNA 2: GGGAAUGGAUCCACAUCUACGAAUUCCUCCCAUAGAGAGGUUAUCCGCUCAUCGAGAUCGGAAGAGCACACGU | ~85 |
| target 1 C6G,G13A (mixed) RNA 1: CACCCGUGCAAAAAUGCAGGGGUCUAAAACUGAGCGGAUAACCUCUCUAUGG RNA 2: GGGAAUGGAUCCACAUCUACGAAUUCGUACCAUAGAGAAGUUAUCGGCUCACCGAGAUCGGAAGAGCACACGU | 10.1 ± 0.7 |
| target 1 MT 5'PFS GGC 3'PFS UAA (mixed) RNA 1: CACCCGUGCAAAAAUGCAGGGGUCUAAAACUGAGCGGAUAACCUCUCUAUGG RNA 2: GGGAAUGGAUCCACAUCUACGAAUUCGGCCCAUAGAGAGGUUAUCCGCUCAUAAAGAUCGGAAGAGCACACGU | 20.9 ± 3.75 |
| target 1 MT 5'PFS GGC 3'PFS UAU (mixed) RNA 1: CACCCGUGCAAAAAUGCAGGGGUCUAAAACUGAGCGGAUAACCUCUCUAUGG RNA 2: GGGAAUGGAUCCACAUCUACGAAUUCGGCCCAUAGAGAGGUUAUCCGCUCAUAUAGAUCGGAAGAGCACACGU | 16 ± 4 |
| target 1 MT 5'PFS GGC 3'PFS UAG (mixed) RNA 1: CACCCGUGCAAAAAUGCAGGGGUCUAAAACUGAGCGGAUAACCUCUCUAUGG RNA 2: GGGAAUGGAUCCACAUCUACGAAUUCGGCCCAUAGAGAGGUUAUCCGCUCAUAGAGAUCGGAAGAGCACACGU | 13.4 ± 1.8 |
| target 1 MT 5'PFS CUU 3'PFS ACA (mixed) RNA 1: CACCCGUGCAAAAAUGCAGGGGUCUAAAACUGAGCGGAUAACCUCUCUAUGG RNA 2: GGGAAUGGAUCCACAUCUACGAAUUCCUUCCAUAGAGAGGUUAUCCGCUCAACAAGAUCGGAAGAGCACACGU | ~65.5 |
| target 1 MT 5'PFS GAA 3'PFS AUC (mixed) RNA 1: CACCCGUGCAAAAAUGCAGGGGUCUAAAACUGAGCGGAUAACCUCUCUAUGG RNA 2: GGGAAUGGAUCCACAUCUACGAAUUCGAACCAUAGAGAGGUUAUCCGCUCAAUCAGAUCGGAAGAGCACACGU | 43 ± 15 |
| target 1 MT 5'PFS GGC 3'PFS UAC (mixed) RNA 1: CACCCGUGCAAAAAUGCAGGGGUCUAAAACUGAGCGGAUAACCUCUCUAUGG RNA 2: GGGAAUGGAUCCACAUCUACGAAUUCGGCCCAUAGAGAGGUUAUCCGCUCAUACAGAUCGGAAGAGCACACGU | 19 ± 5 |
| target 1 MT 5'PFS GUC 3'PFS UUA (mixed) RNA 1: CACCCGUGCAAAAAUGCAGGGGUCUAAAACUGAGCGGAUAACCUCUCUAUGG RNA 2: GGGAAUGGAUCCACAUCUACGAAUUCGUCCCAUAGAGAGGUUAUCCGCUCAUUAAGAUCGGAAGAGCACACGU | 12.2 ± 2.45 |
| target 1 MT 5'PFS GAC 3'PFS AGC (mixed) RNA 1: CACCCGUGCAAAAAUGCAGGGGUCUAAAACUGAGCGGAUAACCUCUCUAUGG RNA 2: GGGAAUGGAUCCACAUCUACGAAUUCGACCCAUAGAGAGGUUAUCCGCUCAAGCAGAUCGGAAGAGCACACGU | 13.6 ± 2.6 |
| target 1 MT 5'PFS GGG 3'PFS AAC (mixed) RNA 1: CACCCGUGCAAAAAUGCAGGGGUCUAAAACUGAGCGGAUAACCUCUCUAUGG RNA 2: GGGAAUGGAUCCACAUCUACGAAUUCGGGCCAUAGAGAGGUUAUCCGCUCAAACAGAUCGGAAGAGCACACGU | 35.5 ± 8.5 |
| target 1 MT 5'PFS ACA 3'PFS UGA (mixed) RNA 1: CACCCGUGCAAAAAUGCAGGGGUCUAAAACUGAGCGGAUAACCUCUCUAUGG RNA 2: GGGAAUGGAUCCACAUCUACGAAUUCACACCAUAGAGAGGUUAUCCGCUCAUGAAGAUCGGAAGAGCACACGU | 15.5 ± 4.5 |
